Data as given in the nanobody polyreactivity screen of Harvey et al. (2022).

Test: yeast display, Sf9 membrane polyspecificity reagent, FACS + sequencing; frameworks hold sequencing errors
Outline: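 Nanobodies from a synthetic yeast display library (Saccharomyces cerevisiae BJ5465), induced 36–48 hours with galactose, were stained 1 hour at 4 °C with 10% biotinylated, detergent-solubilized Sf9 membrane reagent, enriched on streptavidin microbeads, then FACS-sorted. Anti-HA (expression) and streptavidin (reagent binding) fluorescence set low and high (top ~1%) gates. Polyreactivity labels come from the gate of origin. Genes were colony-PCR amplified, MiSeq 2 × 250 sequenced and filtered by CDR length.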
With “QVQLVESGGGLVQAGGRLRLSCAASGRIFWSNTMGWYRQAPGKERELVAAISGRGGSTYYPDSVKGRFTISRDNAKNTVYLQMNSLKPEDTAVYYCAAKPTRSRKIYEYWGQGTQVTVSS” the “polyreactivity (PSR sort gate)” value was “low polyreactivity”. For “QVQLVESGGGLVQAGGRLRLSCAASGRIFYPYDMGWYRQEPGKERELVAAISRSDGITYYADSVKGRFTISRDNAKNTVYLQMKSLKPEDTPVYYCAADDPSGHYPDFEYWGQGTQVTVSS”, the “polyreactivity (PSR sort gate)” value was “low polyreactivity”. In the case of “QVQLVESGGGLVQAGGRLRLSCAASGRILYVYLMGWYRQAPGKERELGAAISRRGGGTYYADSVKGRFTISRDNAKNTVYLQMNSLKPEDTAVYYCATDQYYEYDYWGQGTQVTVSS”, the “polyreactivity (PSR sort gate)” value is reported as “low polyreactivity”. In the case of “QVQLVESGGGLVQAGGRLRLSCAASGRTFDDYAMGWYRQAPGKERELVAVITSGGRTKYADSVKGRFTISRDNAKNTVYLQMNSLKPEDTAVYYCAAREVHDRYGYWGQGTQVTVSS”, the “polyreactivity (PSR sort gate)” value is reported as “high polyreactivity”. In the case of “QVQLVESGGGLVQAGGRLRLSCAASGRTFFGYAMGWYRQAPGKERELVAAITSSGGRTYYADSVKGRFTISRDNAKNTVYLQMNSLKPEDTAVYYCNTVLSFRSVNIYRGRGDYWGQGTQVTVSS”, the “polyreactivity (PSR sort gate)” value is reported as “high polyreactivity”. In the case of “QVQLVESGGGLVQAGGRLRLSCAASGRTFGINAMGWYRQEPGKERELVASISSGGRTNYADSVKGRFTISRHNAKNTVYLQMNSLKPEDTAVYYCARSRLGRAYGRYDYWGQGTQVTVSS”, the “polyreactivity (PSR sort gate)” value is reported as “low polyreactivity”. For “QVQLVESGGGLVQAGGRLRLSCAASGRTFGQNAMGWYRQAPGKERELVAVISSRGGSTYYADSVKGRFTISRDNAKNTVYLQMNSLKPEDTAVYYCAKARRKPGAVDYWGQGTQVTVSS”, the “polyreactivity (PSR sort gate)” value was “high polyreactivity”. In the case of “QVQLVESGGGLVQAGGRLRLSCAASGRTFLVNAMGWYRQAPGKERELVAAISQRGGSTDYADSVKGRFTISRDNAKNTVYLQMNSLKPEDTAVYYCAVRWGYLYDYWGQVTQVTVSS”, the “polyreactivity (PSR sort gate)” value is reported as “low polyreactivity”. With “QVQLVESGGGLVQAGGRLRLSCAASGRTFRGNVMGWYRQAPGKEREFVAAITKSDGSTYYADSVKGRFTISRDNAKNTVYLQMNSLKPEDTAVYYCAARTGRTGWPWFRYDYWGQGTQVTVSS” the “polyreactivity (PSR sort gate)” value was “low polyreactivity”. For “QVQLVESGGGLVQAGGRLRLSCAASGRTFRWYAMGRYRQAPGKERELVADISSVGSTDYADSVKGRFTISRDNAKNTVYLQMNSLKPEDTAVYFCAADFSPRRYHNLSFGYWGQGTQVTVSS”, the “polyreactivity (PSR sort gate)” value was “low polyreactivity”. In the case of “QVQLVESGGGLVQAGGRLRLSCAASGRTFSNYAKGWYRQAPGKEREFVAGIRYNGGSTYYADSVKGRFTISRDNAKNTVYLQMKSLKPEDTAVYYCAARYSRSMDYWGQGTQVTVSS”, the “polyreactivity (PSR sort gate)” value is reported as “high polyreactivity”. For “QVQLVESGGGLVQAGGRLRLSCAASGRTFYGYAMGWYRQAPGKERELVASISRDGSTNYADSVNGRFTISRDNAKNTVYLQMHSLKPEDTAVYYCAADIWYYRYPIYYYSYDYWGPGTQVTVSS”, the “polyreactivity (PSR sort gate)” value was “low polyreactivity”. With “QVQLVESGGGLVQAGGRLRLSCAASGRTFYVYTMGWYRQAPGPERELVAAIPSGGSTNYADSVKGRFTISRDNAKKTVYLQMNSLKPEDTAVYYCAARDSTVFKRYYYWGQGTQVTVSS” the “polyreactivity (PSR sort gate)” value was “high polyreactivity”. For “QVQLVESGGGLVQAGGRLRLSCAASGRTFYYNGMGWYRQAPGKERELVAAITSGGTTSYADSVKGRFTISRDNAKNTVYLQMNSLKPEDTAVYYCNADYWAVNYDYWGQGTQVTVSS”, the “polyreactivity (PSR sort gate)” value was “low polyreactivity”. In the case of “QVQLVESGGGLVQAGGRLRLSCAASGRTLGVYTMGWYRQAPGKERELVATISYNGGSTYYADSVKGRFTISRDNAKNTVYLQMNSLKPEDTAVYYCAKAYDTTLTYNYWGQGTQVTVSS”, the “polyreactivity (PSR sort gate)” value is reported as “low polyreactivity”. For “QVQLVESGGGLVQAGGRLRLSCAASGSIFDRNAMGLYRQAPGKESELVATITWYGVSTYYADSVKGRFTISRDNAKNTVYLQMNSLKPEDTAVYYCNADYSYRHWYDPGHYGEAMGYWGQGTQVTVSS”, the “polyreactivity (PSR sort gate)” value was “low polyreactivity”. For “QVQLVESGGGLVQAGGRLRLSCAASGSIFFHYAMGWYRQAPGKERERVAAITWDGGSTYYADSVKGRFTISRDNAKNTVYLQMNSLKPEDTAVYYCNADQDLSTDEDEYWGQGTQVTVLS”, the “polyreactivity (PSR sort gate)” value was “low polyreactivity”. With “QVQLVESGGGLVQAGGRLRLSCAASGSIFGVYDMGWYRQAPGKERELVAVINSNGGSTYYADSVKGRFTISRDNAKNTVYLQMNSLKPEDTAVYYCAAERATVKFGYWGQGTQVTVSS” the “polyreactivity (PSR sort gate)” value was “low polyreactivity”. For “QVQLVESGGGLVQAGGRLRLSCAASGSIFRRYAMGWYRQAPGKERELVAAISSTPITYYADSVKGRFTISRDNAKNTVYLQMNSLKPEDTAVYYCAAELLLSYYYGLEDDYWGQGTQVTVSS”, the “polyreactivity (PSR sort gate)” value was “low polyreactivity”. With “QVQLVESGGGLVQAGGRLRLSCAASGSIFRSNVMGWYIQAPGKEREMVASITSGGITYADSVNGRFTISRDNAQNTVYLQMNSLKPEDTAVYYCDTVRRYAMSPYKGRYDYWGQGTQVTVSS” the “polyreactivity (PSR sort gate)” value was “low polyreactivity”. In the case of “QVQLVESGGGLVQAGGRLRLSCAASGSIFSHNVMGWYRQAPGKEGELVAAITYRGGSTYYADSVKGRFTISRDNAKNTVYLQMNSLKPEDTAVYYCSALNEVSTYHGFDYWGQGTQVTVSS”, the “polyreactivity (PSR sort gate)” value is reported as “low polyreactivity”. In the case of “QVQLVESGGGLVQAGGRLRLSCAASGSIFSYYAMGWYRQAPGKERELVAAITANGGSTYYADSVKGRFTISRDNAKNTVYLQMNSLKPADTAVYYCAADYYWGYDCGQGTQVTVSS”, the “polyreactivity (PSR sort gate)” value is reported as “low polyreactivity”. With “QVQLVESGGGLVQAGGRLRLSCAASGSIFTYNAMGWYIQAPGKERELVAAISASGGRTYYADSVKGRFTISRDNAKNTVYLQMNILKPEDTAVYYCAARIRVSGLRRFDYWGQGTQVTVSS” the “polyreactivity (PSR sort gate)” value was “high polyreactivity”. For “QVQLVESGGGLVQAGGRLRLSCAASGSIFVIYGMGWYRQAPGKERELVAAISDRGGSTYYADSVKGRFTISRDNAKNTVYLQMNSLKPEDTAVYYCAADRQYRYATRYDYWGQGTQVTVSS”, the “polyreactivity (PSR sort gate)” value was “low polyreactivity”. For “QVQLVESGGGLVQAGGRLRLSCAASGSIFYHYAMGWSRQAPGKERELVAAISQSGGGTYYADSVKGRFTISRDYAKNTVYLQMNSLKPEDTAVYYCAADRTGPYDYWGQGTQVTVSS”, the “polyreactivity (PSR sort gate)” value was “high polyreactivity”. With “QVQLVESGGGLVQAGGRLRLSCAASGSIIHYYTMGWSRQAPGKERELVAAINWSGTRTYYADSVKGRFTISRDNAKNTVYLQMNSLKPEDTAVYYCAAESYYPAGIRVYWGQGTQVTVSS” the “polyreactivity (PSR sort gate)” value was “high polyreactivity”. In the case of “QVQLVESGGGLVQAGGRLRLSCAASGSILGAYTMGWYRQAPGKERELVAAITRRGGSTYYSDSVKGRFTISRDNAKNTVYLQMNSLKPEDTAVYYCNAEYGVWYDYLVGPYDYWGQGNQVTVSS”, the “polyreactivity (PSR sort gate)” value is reported as “low polyreactivity”. For “QVQLVESGGGLVQAGGRLRLSCAASGSTFGGNAMGWSRQAPGKERELVATISNSGGRTYYADSVKGRFTISRDNAKNTVYLQMNSLKPEDTAVYYCAADHPAFGPGYSFDYWGQGTQVTVSS”, the “polyreactivity (PSR sort gate)” value was “low polyreactivity”. For “QVQLVESGGGLVQAGGRLRLSCAASGSTFGLNAMGWYRQAPGTERELVAAITSRGTRTYYADSVKGRFTISRDNAKNTVYLQMNSLKTEDTAGYKCAKDSGATRYGEYDYWGQGTQVTVSS”, the “polyreactivity (PSR sort gate)” value was “low polyreactivity”. With “QVQLVESGGGLVQAGGRLRLSCAASGSTFLSNDMGWYRQAPGKERELVAAISQSGGNTYYADSVKGRFTISRDKAKNTVYLQMNSVKPEDTAVYYWAALDYWVQGTQVTVSS” the “polyreactivity (PSR sort gate)” value was “low polyreactivity”. For “QVQLVESGGGLVQAGGRLRLSCAASGSTFVLNDRGWYRQPPGKEREFVAAIDTSGGTTSYADSVKGRFTISRDNAKNTVYLQMNSLKPEDTAVYYCAALWFTRVHLFDSWGQGPQVTVSS”, the “polyreactivity (PSR sort gate)” value was “low polyreactivity”. For “QVQLVESGGGLVQAGGRLRLSCAASGSTIKFNAMGWYRQAPGKERELVAAISRGGRTNYADSVKGRFTISRDNAKYTVYLQMNSLKPEDTAVYKCAKDVAGLFHVGALYYYWGQGTQVTVSS”, the “polyreactivity (PSR sort gate)” value was “low polyreactivity”. For “QVQLVESGGGLVQAGGRLRLSCAASGSTIPPSAMGWYRQSPGKERELVAAITSGGSTYYADSVKGRLTISRDNAKNTVYIQLNSLKPEDTAVYYCNADQQTIRSAKNDYWGQGTQVTVSS”, the “polyreactivity (PSR sort gate)” value was “low polyreactivity”. With “QVQLVESGGGLVQAGGRLRLSCAASGSTITYYTMGWYRQAPGKERELVAAISGSGGRTYYADSVKGRFTISRDNAKNTVYLQMNSLKPEDTAVYYCAAVYQLSRYDYWGQGTQVTVSS” the “polyreactivity (PSR sort gate)” value was “high polyreactivity”. In the case of “QVQLVESGGGLVQAGGRLRLSCAASGSTLSLYDMGRYRQAPGKERELVAAITSSGGTYYADSVKGRFTISRDNAKNTVFLQMKSLKPEDTAVYYCNAYAKDARSYGFHRVNYWGQGTQVTVSS”, the “polyreactivity (PSR sort gate)” value is reported as “high polyreactivity”. For “QVQLVESGGGLVQAGGRLRLSCAASGSTNYRYAMRWYRQAPGKERELVATISRTGARTNYADSVKGRFTISRDNAKNTVYLQMNSLKPEDTAVYYCAASAPYIYYWGQGTQVTVSS”, the “polyreactivity (PSR sort gate)” value was “high polyreactivity”. In the case of “QVQLVESGGGLVQAGGRLRLSCAASGSTSTLYAMGWYRQAPGKERELVAAISKSGGRTYYADSVKGRFTSSRDNAKNTVDLQMNSLKPEDTAVYYCAALAVYPRRFDYWGQGTQVTVSS”, the “polyreactivity (PSR sort gate)” value is reported as “high polyreactivity”. For “QVQLVESGGGLVQAGGRLRLSCAASGYIFKNYAMGWDRQAPGKERELVATINYSGGGTYYADSVKGRFTISRDNAKNTVYLQMNSLKQEDTAVYYCAAREKYISYSYYYWGQGTQVTVSS”, the “polyreactivity (PSR sort gate)” value was “high polyreactivity”. For “QVQLVESGGGLVQAGGRLRLSCAASVGIFYYYAMGWYRQAPGKERELVATITYTGGSTYADSVKGRFTISRDNAKNTVYLQMNSLKPEDTAVYYCAADGRSRSYYGYDHWGQGTQVTVSS”, the “polyreactivity (PSR sort gate)” value was “low polyreactivity”. With “QVQLVESGGGLVQAGGRLRLSCAASVRTFYYYVMGWYRQEPGNERELVAAISSGGSTYYADSVKGRFTISRDNAKNTVYLQMNSLKPEDTAVYYGAATKRYRDSYDYDYWGQGTQVTVSS” the “polyreactivity (PSR sort gate)” value was “high polyreactivity”. For “QVQLVESGGGLVQAGGRLRLSCAAYGSIFDFYAMGWYRQAPGKERELVAAISGSGGSTYYADSVKGRFTISRDNAKNTVYLQMNSLKPEDTEVYYCSYYYWGQGTQETVSS”, the “polyreactivity (PSR sort gate)” value was “low polyreactivity”. For “QVQLVESGGGLVQAGGRLRLSCADSGSTFLYNAMGWYRQAPGKERELVAAITSDGSTSYADSVKGRFTISRDNAKNTVYLQMNSLKPEDTALYYSAAYGFQHLSSLPFSRHNYWGQGTQVTVSS”, the “polyreactivity (PSR sort gate)” value was “low polyreactivity”. For “QVQLVESGGGLVQAGGRLRLSCADSGSTFWSYAIGWYRQSPGKEREFVAAISSSDDSTYYADSVKGRFTISRDNAKNTVYLQMNSLKPEDTAVYYCATSWYIYPFDYWGQGTQVTVSS”, the “polyreactivity (PSR sort gate)” value was “low polyreactivity”.
